Results on 13 molecules are retold here after patent publication US20250099587A1 (KELONIA THERAPEUTICS, published 2025).

To fix the notation:
T1: recombinant, phycoerythrin (PE) labeled, BCMA extracellular domain-FC fusion protein (Homo sapiens (Human), UniProt Q02223 1-54, phycoerythrin (PE) label)
T1 construct: The whole entry is named here; only the extracellular domain stood in the assay; also called BCMA-PE; not shown: Fc part of the staining reagent
T1 sequence: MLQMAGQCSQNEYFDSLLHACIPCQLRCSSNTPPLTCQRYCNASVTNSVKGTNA

B1: anti-BCMA CAR of recombinant lentivirus LV 1 (SEQ ID NO: 256) (receptor)
chain: EIVLTQSPATLSLSPGERATLSCRASQSVSSYLAWYQQKPGQAPRLLIYDASNRATGIPARFSGSGSGTDFTLTISSLEPEDFAVYYCQQRVVYPITFGGGTKVEIKGGGGSGGGGSGGGGSGGGGSQITLKESGPTLVKPTQTLTLTCTFSGFSLSTSGVGVGWIRQPPGKALEWLALIYWNDEKRYSPSLKSRLTITKDTSKNQVVLTMTNMDPVDTAVYYCARDEYGGFDIWGQGTMVTVSSTTTPAPRPPTPAPTIASQPLSLRPEACRPAAGGAVHTRGLDFACDIYIWAPLAGTCGVLLLSLVITLYCKRGRKKLLYIFKQPFMRPVQTTQEEDGCSCRFPEEEEGGCELRVKFSRSADAPAYQQGQNQLYNELNLGRREEYDVLDKRRGRDPEMGGKPRRKNPQEGLYNELQKDKMAEAYSEIGMKGERRRGKGHDGLYQGLSTATKDTYDALHMQALPPR
B2: anti-BCMA CAR of recombinant lentivirus LV 2 (SEQ ID NO: 258) (receptor)
chain: EIVLTQSPATLSLSPGERATLSCRASQSVSSYLAWYQQKPGQAPRLLIYDASNRATGIPARFSGSGSGTDFTLTISSLEPEDFAVYYCQQRFDYPITFGGGTKVEIKGGGGSGGGGSGGGGSGGGGSQITLKESGPTLVKPTQTLTLTCTFSGFSLSTSGVGVGWIRQPPGKALEWLALIYWNDDKRYSPSLKSRLTITKDTSKNQVVLTMTNMDPVDTAVYYCARDEYGGFDIWGQGTMVTVSSTTTPAPRPPTPAPTIASQPLSLRPEACRPAAGGAVHTRGLDFACDIYIWAPLAGTCGVLLLSLVITLYCKRGRKKLLYIFKQPFMRPVQTTQEEDGCSCRFPEEEEGGCELRVKFSRSADAPAYQQGQNQLYNELNLGRREEYDVLDKRRGRDPEMGGKPRRKNPQEGLYNELQKDKMAEAYSEIGMKGERRRGKGHDGLYQGLSTATKDTYDALHMQALPPR
B3: anti-BCMA CAR of recombinant lentivirus LV 5 (SEQ ID NO: 263) (receptor)
chain: QVQLVESGGGLVKPGGSLRLSCAASGFTFSDYYMSWIRQAPGKGLEWVSYISSSGSTIYYADSVKGRFTISRDNAKNSLYLQMNSLRAEDTAVYYCARDQGNYGVDVWGQGTTVTVSSGGGGSGGGGSGGGGSGGGGSDIQMTQSPSTLSASVGDRVTITCRASQSISSWLAWYQQKPGKAPKLLIYEASSLESGVPSRFSGSGSGTEFTLTISSLQPDDFATYYCQQSDSHPITFGGGTKVEIKTTTPAPRPPTPAPTIASQPLSLRPEACRPAAGGAVHTRGLDFACDIYIWAPLAGTCGVLLLSLVITLYCKRGRKKLLYIFKQPFMRPVQTTQEEDGCSCRFPEEEEGGCELRVKFSRSADAPAYQQGQNQLYNELNLGRREEYDVLDKRRGRDPEMGGKPRRKNPQEGLYNELQKDKMAEAYSEIGMKGERRRGKGHDGLYQGLSTATKDTYDALHMQALPPR
notes: also called LV 5.1 to LV 5.9
B4: anti-BCMA CAR of recombinant lentivirus LV 10 (SEQ ID NO: 274) (receptor)
chain: EVQLLESGGGLVQPGGSLRLSCAASGFTFESEAMSWYRQAPGKERELVSVITSEGSTYYADSVKGRFTISRDNSKNTLYLQMNSLRAEDTAVYYCAHIEWETRLNWGQGTQVTVSSTTTPAPRPPTPAPTIASQPLSLRPEACRPAAGGAVHTRGLDFACDIYIWAPLAGTCGVLLLSLVITLYCKRGRKKLLYIFKQPFMRPVQTTQEEDGCSCRFPEEEEGGCELRVKFSRSADAPAYQQGQNQLYNELNLGRREEYDVLDKRRGRDPEMGGKPRRKNPQEGLYNELQKDKMAEAYSEIGMKGERRRGKGHDGLYQGLSTATKDTYDALHMQALPPR
B5: anti-BCMA CAR of recombinant lentivirus LV 12 (SEQ ID NO: 276) (receptor)
chain: EVQLLESGGGLVQPGGSLRLSCAASGFTFEDYAMSWFRQAPGKEREGVSAISGKGGSTYYADSVKGRFTISRDNSKNTLYLQMNSLRAEDTAVYYCAVLDEEAGAEGGYWGQGTQVTVSSTTTPAPRPPTPAPTIASQPLSLRPEACRPAAGGAVHTRGLDFACDIYIWAPLAGTCGVLLLSLVITLYCKRGRKKLLYIFKQPFMRPVQTTQEEDGCSCRFPEEEEGGCELRVKFSRSADAPAYQQGQNQLYNELNLGRREEYDVLDKRRGRDPEMGGKPRRKNPQEGLYNELQKDKMAEAYSEIGMKGERRRGKGHDGLYQGLSTATKDTYDALHMQALPPR
B6: anti-BCMA CAR of recombinant lentivirus LV 13 (SEQ ID NO: 277) (receptor)
chain: EVQLLESGGGLVQPGGSLRLSCAASGFTFDRYAMSWFRQAPGKEREGVSAISTSGDSTYYADSVKGRFTISRDNSKNTLYLQMNSLRAEDTAVYYCAVLDEEAGAEGGYWGQGTQVTVSSTTTPAPRPPTPAPTIASQPLSLRPEACRPAAGGAVHTRGLDFACDIYIWAPLAGTCGVLLLSLVITLYCKRGRKKLLYIFKQPFMRPVQTTQEEDGCSCRFPEEEEGGCELRVKFSRSADAPAYQQGQNQLYNELNLGRREEYDVLDKRRGRDPEMGGKPRRKNPQEGLYNELQKDKMAEAYSEIGMKGERRRGKGHDGLYQGLSTATKDTYDALHMQALPPR
notes: also called LV 13.1 to LV 13.9
B7: anti-BCMA CAR of recombinant lentivirus LV 9 (SEQ ID NO: 273) (receptor)
chain: EVQLLESGGGLVQPGGSLRLSCAASGFTFGSEAMSWVRQAPGKERELVSAISGSGEVTYYADSVKGRFTISRDNSKNTLYLQMNSLRAEDTAVYYCQRLVEAKRHWGQGTQVTVSSTTTPAPRPPTPAPTIASQPLSLRPEACRPAAGGAVHTRGLDFACDIYIWAPLAGTCGVLLLSLVITLYCKRGRKKLLYIFKQPFMRPVQTTQEEDGCSCRFPEEEEGGCELRVKFSRSADAPAYQQGQNQLYNELNLGRREEYDVLDKRRGRDPEMGGKPRRKNPQEGLYNELQKDKMAEAYSEIGMKGERRRGKGHDGLYQGLSTATKDTYDALHMQALPPR
notes: also called LV 9.1 to LV 9.9
B8: anti-BCMA CAR of recombinant lentivirus LV 8 (SEQ ID NO: 270) (receptor)
chain: DIQMTQSPSSLSASVGDRVTITCQASQDIANYLNWYQQKPGKAPKLLIYDASNLETGVPSRFSGSGSGTDFTFTISSLQPEDIATYYCQQHFNLPLTFGGGTKVEIKGGGGSGGGGSGGGGSGGGGSQITLKESGPTLVKPTQTLTLTCTFSGFSLSTSGVGVGWIRQPPGKALEWLALIYWNDEKRYSPSLKSRLTITKDTSKNQVVLTMTNMDPVDTAVYYCAREGSHDYKSSNWFDPWGQGTLVTVSSTTTPAPRPPTPAPTIASQPLSLRPEACRPAAGGAVHTRGLDFACDIYIWAPLAGTCGVLLLSLVITLYCKRGRKKLLYIFKQPFMRPVQTTQEEDGCSCRFPEEEEGGCELRVKFSRSADAPAYQQGQNQLYNELNLGRREEYDVLDKRRGRDPEMGGKPRRKNPQEGLYNELQKDKMAEAYSEIGMKGERRRGKGHDGLYQGLSTATKDTYDALHMQALPPR
notes: also called LV 8.1 to LV 8.9
B9: anti-BCMA CAR of recombinant lentivirus LV 3 (SEQ ID NO: 259) (receptor)
chain: QVQLVESGGGVVQPGRSLRLSCAASGFTFSSYGMHWVRQAPGKGLEWVAVISYEGSNKYYADSVKGRFTISRDNSKNTLYLQMNSLRAEDTAVYYCARELGDGMDVWGQGTTVTVSSGGGGSGGGGSGGGGSGGGGSEIVLTQSPATLSLSPGERATLSCRASQSVSSYLAWFQQKPGQAPRLLIYDASNRATGIPARFSGSGSGTDFTLTISSLEPEDFAVYYCQQRVDLWTFGGGTKVEIKTTTPAPRPPTPAPTIASQPLSLRPEACRPAAGGAVHTRGLDFACDIYIWAPLAGTCGVLLLSLVITLYCKRGRKKLLYIFKQPFMRPVQTTQEEDGCSCRFPEEEEGGCELRVKFSRSADAPAYQQGQNQLYNELNLGRREEYDVLDKRRGRDPEMGGKPRRKNPQEGLYNELQKDKMAEAYSEIGMKGERRRGKGHDGLYQGLSTATKDTYDALHMQALPPR
notes: also called LV 3.1 to LV 3.9
B10: anti-BCMA CAR of recombinant lentivirus LV 7 (SEQ ID NO: 268) (receptor)
chain: DIQMTQSPSSLSASVGDRVTITCRASQSISSYLNWYQQKPGKAPKLLIYAASSLQSGVPSRFSGSGSGTDFTLTISSLQPEDFATYYCQQAHSSPITFGGGTKVEIKGGGGSGGGGSGGGGSGGGGSEVQLLESGGGLVQPGGSLRLSCAASGFTFSNYAMSWVRQAPGKGLEWVSAISGSGGSTYYADSVKGRFTISRDNSKNTLYLQMNSLRAEDTAVYYCARPGDGYYEGVYFDYWGQGTLVTVSSTTTPAPRPPTPAPTIASQPLSLRPEACRPAAGGAVHTRGLDFACDIYIWAPLAGTCGVLLLSLVITLYCKRGRKKLLYIFKQPFMRPVQTTQEEDGCSCRFPEEEEGGCELRVKFSRSADAPAYQQGQNQLYNELNLGRREEYDVLDKRRGRDPEMGGKPRRKNPQEGLYNELQKDKMAEAYSEIGMKGERRRGKGHDGLYQGLSTATKDTYDALHMQALPPR
B11: anti-BCMA CAR of recombinant lentivirus LV 15 (SEQ ID NO: 279) (receptor)
chain: EVQLLESGGGLVQPGGSLRLSCAASGFTFDSYTMSWYRQAPGKERELVSAISGHGDSTYYADSVKGRFTISRDNSKNTLYLQMNSLRAEDTAVYYCTRISITTEWLAGDYWGQGTQVTVSSTTTPAPRPPTPAPTIASQPLSLRPEACRPAAGGAVHTRGLDFACDIYIWAPLAGTCGVLLLSLVITLYCKRGRKKLLYIFKQPFMRPVQTTQEEDGCSCRFPEEEEGGCELRVKFSRSADAPAYQQGQNQLYNELNLGRREEYDVLDKRRGRDPEMGGKPRRKNPQEGLYNELQKDKMAEAYSEIGMKGERRRGKGHDGLYQGLSTATKDTYDALHMQALPPR
B12: anti-BCMA CAR of recombinant lentivirus LV 11 (SEQ ID NO: 275) (receptor)
chain: EVQLLESGGGLVQPGGSLRLSCAASGFTFDEYTMHWFRQAPGKEREFVSAISGGGSETYYADSVKGRFTISRDNSKNTLYLQMNSLRAEDTAVYYCAAGGEEAGVGYWGQGTQVTVSSTTTPAPRPPTPAPTIASQPLSLRPEACRPAAGGAVHTRGLDFACDIYIWAPLAGTCGVLLLSLVITLYCKRGRKKLLYIFKQPFMRPVQTTQEEDGCSCRFPEEEEGGCELRVKFSRSADAPAYQQGQNQLYNELNLGRREEYDVLDKRRGRDPEMGGKPRRKNPQEGLYNELQKDKMAEAYSEIGMKGERRRGKGHDGLYQGLSTATKDTYDALHMQALPPR
B13: anti-BCMA CAR of recombinant lentivirus LV 18 (SEQ ID NO: 283) (receptor)
chain: EVQLLESGGGLVQPGGSLRLSCAASGFTFSSEGMSWVRQAPGKERELVSAISGSGDHTYYADSVRGRFTISRDNSKNTLYLQMNSLRAEDTAVYYCNALEGGPTTAIQPGGPDYWGQGTQVTVSSTTTPAPRPPTPAPTIASQPLSLRPEACRPAAGGAVHTRGLDFACDIYIWAPLAGTCGVLLLSLVITLYCKRGRKKLLYIFKQPFMRPVQTTQEEDGCSCRFPEEEEGGCELRVKFSRSADAPAYQQGQNQLYNELNLGRREEYDVLDKRRGRDPEMGGKPRRKNPQEGLYNELQKDKMAEAYSEIGMKGERRRGKGHDGLYQGLSTATKDTYDALHMQALPPR

The test has as its target T1, recombinant, phycoerythrin (PE) …. Description: flow cytometry of transduced PBMCs stained with BCMA-PE (PE-labeled BCMA extracellular domain-Fc). The procedure: 5×10⁵ human PBMCs were plated in each well of a 24-well plate. Cells were transduced with recombinant lentiviruses LV 1 to LV 19 at a MOI 2 based on the Jurkat functional titer, or a 0.5 mL volumetric transduction if MOI 2 was not achievable. Seven days post-transduction, PBMCs were harvested and stained with BCMA-PE and analyzed by flow cytometry to assess the percentage of anti-BCMA CAR expressing cells. FIG. 2B.
(In general: A flow cytometer gives signals particle by particle.)
As for B1, the binding result was “binds”.
Regarding B2, the binding result is “binds”.
In the case of B3, the binding result is recorded as “binds”.
Take B4: the binding result is “binds”.
For B5 the value was “binds”; for B6, “binds”; for B7, “binds”.
On to B8, for which the binding result is “binds”.
On to B9, for which the binding result is on record as “binds”.
Turning to B10, the binding result is “binds”.
Take B11: the binding result is on record as “binds”.
As to B12, the binding result is given as “binds”.
Regarding B13, the binding result is “binds”.
